Experiment [1] addresses human whole molecule IgG (human). The experiment can be described thus: SPR; IgG amine coupled to CM5 chip, construct flowed at 750 ug/ml; end-point RU of association phase.
Experiment [2] addresses mouse whole molecule IgG (mouse). The description is as above.
In experiment [3] the target is rabbit whole molecule IgG (rabbit). Described as above.
Experiment [4] has as its target human IgG Fc (human). The description is as above.
For experiment [5], the target named is guinea pig whole molecule IgG (guinea pig). The experiment is described as above.
For experiment [6], the target named is human whole molecule IgG (human). The experiment can be described thus: SPR; IgG amine-coupled to CM5 chip, construct flowed at 750 ug/ml; end-point RU of association phase.
The target in experiment [7] is rabbit whole molecule IgG (rabbit). The description is as above.
Experiment [8] deals with human IgG Fc (human). The experiment is described as above.
The target in experiment [9] is human whole molecule IgG (human). The experiment is described as above. This is another data set of the same source.
In experiment [10] the target is rabbit whole molecule IgG (rabbit). The description is as above. The source holds these as a separate data set.
Experiment [11] addresses human IgG Fc (human). Described as above. This is another data set of the same source.

This passage reports RU Post Association results from US20220280636A1.

As to “gE-2t 24-405/gI-2t 262 (from UniProt P89475 23-402; P06764 21-262)”, the RU Post Association worked out at 136 RU in experiment [1]; 6 RU in [2]; 142 RU in experiment [3]; 95 RU in the experiment with human IgG Fc (human) [4]; 8 RU in experiment [5].
With “gE-1t 419/gI-1t 269 (from UniProt P04488 21-419; P06487 21-276)”, the RU Post Association stood at 232 RU in experiment [1]; 11 RU in [2]; 195 RU in experiment [3]; 216 RU with human IgG Fc (human) [4]; 19 RU in [5].
Consider “gE-2t 417/gI-2t 262 (from UniProt P89475 21-414; P06764 21-262)”, for which the RU Post Association turned out to be 133 RU in experiment [6]; 138 RU in experiment [7]; 98 RU in the experiment with human IgG Fc (human) [8]; 52 RU in [1]; 10 RU in experiment [2]; 46 RU in experiment [3]. Moreover, the RU Post Association stood at 41 RU in the experiment with human IgG Fc (human) [4]; 9 RU in experiment [5]; 53 RU in [9]; 45 RU in [10]; 43 RU with human IgG Fc (human) [11].
As to “gE-2t 414/gI-2t 262 (from UniProt P89475 21-411; P06764 21-262)”, the RU Post Association in [1] turned out to be 79 RU; in [2], 5 RU; in experiment [3], 75 RU; with human IgG Fc (human) [4] it was 53 RU; in [5], 4 RU.
gE-2t 405 (from UniProt P89475 21-402): the RU Post Association in experiment [1] is 8 RU; in experiment [2], 4 RU; in experiment [3] it was 6 RU; with human IgG Fc (human) [4], 5 RU; in experiment [5], 5 RU.
Consider “gE-2t 24-405 (from UniProt P89475 23-402)”, for which the RU Post Association in experiment [1] was determined as 7 RU; in experiment [2], 4 RU; in experiment [3] it was 6 RU; in the experiment with human IgG Fc (human) [4] it was 8 RU; in [5], 5 RU.
The matching figures for “gE-2t 405/gI-2t 262 (from UniProt P89475 21-402; P06764 21-262)”: 142 RU, 8 RU, 165 RU, 100 RU and 9 RU.
As to gD-2t 339 (from UniProt Q69467 26-339), the RU Post Association in [6] amounted to 4 RU; in experiment [7] it was 1 RU; with human IgG Fc (human) [8], 2 RU; in experiment [1], 2 RU; in experiment [2] it was 4 RU; in experiment [3], 11 RU. Also, the RU Post Association with human IgG Fc (human) [4] is 4 RU; in [5], 2 RU; in experiment [9] it was 3 RU; in experiment [10] it was 2 RU; with human IgG Fc (human) [11] it was 1 RU.
